Results on 13 molecules are retold here after patent US20200085917A1 (UNIVERSITY OF PITTSBURGH OF THE COMMONWEALTH SYSTEM OF …, published 2020).

The labels stand for the following.
B1: Ppdpf_IPI:IPI00133078.1 (other, mouse, UniProt Q9CR37 1-115, looked up)
chain: MAAIPSSGSLVATHDYYRRRLGSSSSSSSGGSAEYPGDAVLQSPGLPKADPGHWWASFFFGKSTLPFMTTVLESPERSAESPQVSRSPMTCGLTPETMKQQPVIHSGQTNPRDLS
B2: Prdx3_IPI:IPI00116192.1 (other, mouse, UniProt P20108 63-257, looked up)
chain: TPAVTQHAPYFKGTAVVNGEFKELSLDDFKGKYLVLFFYPLDFTFVCPTEIVAFSDKANEFHDVNCEVVAVSVDSHFSHLAWINTPRKNGGLGHMNITLLSDITKQISRDYGVLLESAGIALRGLFIIDPNGVVKHLSVNDLPVGRSVEETLRLVKAFQFVETHGEVCPANWTPESPTIKPSPTASKEYFEKVHQ
B3: Isca2_IPI:IPI00120671.2 (other, mouse, UniProt Q9DCB8 9-154, looked up)
chain: LTAEAVRAVIPRRSGRLLAVFPRLLTRWETTSSIPEAGEGQIRLTDSCVQRLLEITEGSEFLRLQVEGGGCSGFQYKFSLDTVINPDDRVFEQGGARVVVDSDSLAFVKGAQVDFSQELIRSSFQVLNNPQAQQGCSCGSSFSVKV
B4: Arf2_IPI:IPI00135730.1 (other, mouse, UniProt Q8BSL7 2-181, looked up)
chain: GNVFEKLFKSLFGKKEMRILMVGLDAAGKTTILYKLKLGEIVTTIPTIGFNVETVEYKNISFTVWDVGGQDKIRPLWRHYFQNTQGLIFVVDSNDRERVNEAREELTRMLAEDELRDAVLLVFVNKQDLPNAMNAAEITDKLGLHSLRQRNWYIQATCATSGDGLYEGLDWLSNQLKNQK
B5: Cisd1_IPI:IPI00128346.1 (other, mouse, UniProt Q91WS0 1-108, looked up)
chain: MGLSSNSAVRVEWIAAVTFAAGTAALGYLAYKKFYAKENRTKAMVNLQIQKDNPKVVHAFDMEDLGDKAVYCRCWRSKKFPFCDGAHIKHNEETGDNVGPLIIKKKET
B6: Pfn2_IPI:IPI00227805.6 (other, mouse, UniProt Q9JJV2 2-140, looked up)
chain: AGWQSYVDNLMCDGCCQEAAIVGYCDAKYVWAATAGGVFQSITPVEIDMIVGKDREGFFTNGLTLGAKKCSVIRDSLYVDGDCTMDIRTKSQGGEPTYNVAVGRAGRVLVFVMGKEGVHGGGLNKKAYSMAKYLRDSGF
B7: Fis1_IPI:IPI00132217.1 (other, mouse, UniProt Q9CQ92 1-152, looked up)
chain: MEAVLNELVSVEDLKNFERKFQSEQAAGSVSKSTQFEYAWCLVRSKYNEDIRRGIVLLEELLPKGSKEEQRDYVFYLAVGNYRLKEYEKALKYVRGLLQTEPQNNQAKELERLIDKAMKKDGLVGMAIVGGMALGVAGLAGLIGLAVSKSKS
B8: Mrpl14_IPI:IPI00133778.1 (other, mouse, UniProt Q9D1I6 31-145, looked up)
chain: AVQKMTRVRVVDNSALGSTPYHRPPRCIHVYNKSGVGKVGDQILLAIRGQKKKALIVGHRMPGSRMTPKFDSNNVVLIEDNGNPVGTRIKIPIPTSLRRREGEYSKVLAIAQNFV
B9: Ociad2_IPI:IPI00112139.1 (other, mouse, UniProt Q9D8W7 1-154, looked up)
chain: MASVSTHGNQEKSPHLPPLSKQSLLFCPKSKLHIHRGEIAKIIRECQEESFWKRALPFSLISMLVTQGLVHQGYLAANPRFGSLPKVALAGLLGFGLGKASYIRVCQSKFHSFEDQLRGAGFGPEHNRHCLLTCEDCKTRRGLSEKAGSQPSAS
B10: Brp44_IPI:IPI00131896.1 (other, mouse, UniProt Q9D023 1-127, looked up)
chain: MAAAGARGLRATYHRLMDKVELLLPKKLRPLYNHPAGPRTVFFWAPIMKWGLVCAGLADMARPAEKLSTAQSTVLMATGFIWSRYSLVIIPKNWSLFAVNFFVGSAGASQLFRIWRYNQELKSKGIQ
B11: Tomm20_IPI:IPI00120715.1 (other, mouse, UniProt Q9DCC8 1-145, looked up)
chain: MVGRNSAIAAGVCGALFIGYCIYFDRKRRSDPNFKNRLRERRKKQKLAKERAGLSKLPDLKDAEAVQKFFLEEIQLGEELLAQGDYEKGVDHLTNAIAVCGQPQQLLQVLQQTLPPPVFQMLLTKLPTISQRIVSAQSLAEDDVE
B12: Cplx1_IPI:IPI00132278.1 (other, mouse, UniProt P63040 1-134, looked up)
chain: MEFVMKQALGGATKDMGKMLGGDEEKDPDAAKKEEERQEALRQAEEERKAKYAKMEAEREVMRQGIRDKYGIKKKEEREAEAQAAMEANSEGSLTRPKKAIPPGCGDEPEEEDESILDTVIKYLPGPLQDMFKK
B13: C1qbp_IPI:IPI00132799.4 (other, mouse, UniProt O35658 71-278, looked up)
chain: LHTEGDKAFVEFLTDEIKEEKKIQKHKSLPKMSGDWELEVNGTEAKLLRKVAGEKITVTFNINNSIPPTFDGEEEPSQGQKAEEQEPERTSTPNFVVEVTKTDGKKTLVLDCHYPEDEIGHEDEAESDIFSIKEVSFQATGDSEWRDTNYTLNTDSLDWALYDHLMDFLADRGVDNTFADELVELSTALEHQEYITFLEDLKSFVKNQ

This experiment deals with T1, GST alone (UniProt P08515 1-218 = GST).
T1 construct: Negative control of the pull-downs; also called control GST
T1 sequence (P08515 whole entry): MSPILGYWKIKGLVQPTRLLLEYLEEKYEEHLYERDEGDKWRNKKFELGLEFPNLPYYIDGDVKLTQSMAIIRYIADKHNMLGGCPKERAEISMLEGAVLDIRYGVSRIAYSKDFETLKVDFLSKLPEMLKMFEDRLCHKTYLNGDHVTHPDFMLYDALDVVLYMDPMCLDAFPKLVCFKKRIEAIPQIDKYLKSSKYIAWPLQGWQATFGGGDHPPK
Description: GST pull-down, LC-MS/MS. As for the experimental part:
Extracts were spun at 14,000 r.p.m. at 4° C., and clarified supernatants were incubated with glutathione 4B Sepharose beads (GE Healthcare) at 4° C. overnight. The glutathione beads were then washed extensively with ice-cold TNE buffer, and bound proteins were subjected to SDS-PAGE followed by immunoblotting analysis. For the samples subjected to mass spectrometry, glutathione bead-bound proteins from equal amounts (600 μg) of mitochondria were further washed with high stringency RIPA buffer following TNE buffer wash to decrease nonspecific interaction. Proteins were then eluted from the glutathione beads in SDS sample buffer, separated by SDS-PAGE and stained with Coomassie. Proteins in the gel were digested with trypsin and analyzed by mass spectrometry (LC-MS/MS) at the Taplin Biological Mass Spectrometry Facility (Harvard Medical School, Boston, Mass.).
Regarding B1, the binding result is listed as “no binding”.
The same measure for B2: “no binding”; for B3: “no binding”.
Consider B4, for which the binding result is given as “no binding”.
The same measure for B5: “no binding”; for B6: “no binding”.
The same measure for B7: “no binding”.
The same measure for B8: “no binding”.
B9: the binding result was “no binding”.
Consider B10, for which the binding result was “no binding”.
For B11, the binding result is listed as “no binding”.
In the case of B12, the binding result was “no binding”.
The result for B13 reads “no binding”.
